The labels stand for the following.
B1: Calsenilin (Mus musculus), Q9QXT8 (parent)
chain: MQRTKEAVKASDGNLLGDPGRIPLSKRESIKWQRPRFTRQALMRCCLIKWILSSAAPQGSDSSDSELELSTVRHQPEGLDQLQAQTKFTKKELQSLYRGFKNECPTGLVDEDTFKLIYSQFFPQGDATTYAHFLFNAFDADGNGAIHFEDFVVGLSILLRGTVHEKLKWAFNLYDINKDGCITKEEMLAIMKSIYDMMGRHTYPILREDAPLEHVERFFQKMDRNQDGVVTIDEFLETCQKDENIMNSMQLFENVI

Variants of B1 are the subject of this experiment. As to conditions: with psn1_human PSEN1, P49768.
Take MQRTKEAVKASDGNLLGDPGRIPLSKRESIKWQRPRFTRQALMRCCLIKWILSSAAPQGSDSSDSELELSTVRHQPEGLDQLQAQTKFTKKELQSLYRGFKNECPTGLVDEDTFKLIYSQFFPQGDATTYAHFLFNAFDADGNGAIHFEDFVVGLSILLRGTVHEKLKWAFNLYDINKDGCITKEEMLAIMKSIYDMMGRHTYPILREDAPLEHVERFFQKMDRNQDGVVTIDQFLETCQKDENIMNSMQLFENVI [E234Q]: the “effect of a mutation on the interaction” value was “decreasing interaction”.
To MQRTKEAVKASDGNLLGDPGRIPLSKRESIKWQRPRFTRQALMRCCLIKWILSSAAPQGSDSSDSELELSTVRHQPEGLDQLQAQTKFTKKELQSLYRGFKNECPTGLVDEDTFKLIYSQFFPQGDATTYAHFLFNAFDADGNGAIHFEDFVVGLSILLRGTVHEKLKWAFNLYDINKDGCITKEQMLAIMKSIYDMMGRHTYPILREDAPLEHVERFFQKMDRNQDGVVTIDEFLETCQKDENIMNSMQLFENVI [E186Q] belongs “decreasing interaction”.
